# In patent publication US20050287608A1:
# Biological target: ubiquitinated proteins of yeast cells
# Assay: Flag purification from yeast cells, anti-Ub immunoblot
"reduction in the amount of ubiquitinated protein recovered, against Flag-Rad23 [%]","interaction remaining, compared to the wildtype protein [%]",Substance
80,–,"Flag-rad23^uba1 (yeast Rad23 L183A, amino-terminal Flag epitope) (from UniProt P32628 1-398)"
–,1,"Flag-rad23^Δuba1 (yeast Rad23 with residues 141-190 removed, amino-terminal Flag epitope) (from UniProt P32628 1-140; P32628 191-398)"
